Results published in patent US20150140022A1 (FRAUNHOFER GESELLSCHAFT ZUR FOERDERUNG DER ANGEWANDTEN …, published 2015).

T1: CD30 (human, UniProt P28908 19-595)
T1 construct: whole, on cells; Endogenous antigen on L540 cells
T1 sequence (looked up): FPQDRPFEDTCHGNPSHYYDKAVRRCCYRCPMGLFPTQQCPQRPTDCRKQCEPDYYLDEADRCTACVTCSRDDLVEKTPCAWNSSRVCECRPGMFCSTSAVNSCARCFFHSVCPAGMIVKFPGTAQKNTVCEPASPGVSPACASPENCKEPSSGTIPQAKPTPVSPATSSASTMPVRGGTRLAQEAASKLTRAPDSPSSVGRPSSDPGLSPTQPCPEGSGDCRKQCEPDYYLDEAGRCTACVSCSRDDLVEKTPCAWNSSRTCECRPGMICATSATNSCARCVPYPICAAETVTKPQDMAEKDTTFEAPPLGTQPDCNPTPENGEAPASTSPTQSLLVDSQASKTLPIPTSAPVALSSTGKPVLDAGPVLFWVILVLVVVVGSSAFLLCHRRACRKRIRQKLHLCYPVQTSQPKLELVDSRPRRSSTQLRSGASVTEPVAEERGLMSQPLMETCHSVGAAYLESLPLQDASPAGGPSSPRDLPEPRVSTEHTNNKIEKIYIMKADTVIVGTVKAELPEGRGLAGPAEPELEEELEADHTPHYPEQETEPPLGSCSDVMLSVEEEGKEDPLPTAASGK


What was measured:
CD30 [1] = target: T1, CD30; experiment: flow cytometry on L540 cells (lacking EGFR but expressing CD30), anti-His Alexa 488 detection
CD30 [2] = target: T1, CD30; experiment: flow cytometry on L540 cells (CD30+, EGFR-), direct fluorescence
Procedure: Flow cytometry analysis was carried out after incubating 4×10⁵ cells with each fusion protein for 20 min at […] in PBS. […] As a control, scFv-Ki4-SNAP was labeled with BG-VistaGreen (black curve) and its binding activity was tested against A431, L540 and CHO-K1 cells (filled gray curves). […] As a control, scFv-Ki4-SNAP labeled with BG-Ce6 (black curve) was tested against A431, L540 and CHO-K1 cells (filled gray curves).
The binding efficiency of the labeled and unlabeled fusion proteins was determined by flow cytometry using a FACSCalibur (Becton & Dickinson, Heidelberg, Germany) and CellQuest software. […] Approximately 4×10⁵ cells were incubated in 200 μL PBS containing 0.5 μg of labeled protein for 20 min on ice. The cells were then washed twice with 1.8 mL PBS in a conventional cell washer and analyzed by flow cytometry.

Binder | binding result (CD30 [1]) | binding result (CD30 [2])
scFv-425-SNAP (scFv, Secreted from HEK-293T cells by an Ig kappa leader and purified by its His6 tag; not shown: SNAP-tag (hAGTm, modified human O6-alkylguanine-DNA alkyltransferase, 20 kDa)) scFv: MAQVQLQQSGAELVKPGASVKLSCKASGYTFTSHWMHWVKQRAGQGLEWIGEFNPSNGRTNYNEKFKSKATLTVDKSSSTAYMQLSSLTSEDSAVYYCASRDYDYDGRYFDYWGQGTTVTVSSGGGGSGGGGSGGGGSDIELTQSPAIMSASPGEKVTMTCSASSSVTYMYWYQQKPGSSPRLLIYDTSNLASGVPVRFSGSGSGTSYSLTISRMEAEDAATYYCQQWSSHIFTFGSGTELEIKRHHHHHH | no binding (tested: 0.5 µg/ml) | –
scFv-425-SNAP-VistaGreen (scFv, BG-Vista Green dye covalently coupled to the active site of the SNAP-tag, not shown: SNAP-tag (hAGTm)) scFv: MAQVQLQQSGAELVKPGASVKLSCKASGYTFTSHWMHWVKQRAGQGLEWIGEFNPSNGRTNYNEKFKSKATLTVDKSSSTAYMQLSSLTSEDSAVYYCASRDYDYDGRYFDYWGQGTTVTVSSGGGGSGGGGSGGGGSDIELTQSPAIMSASPGEKVTMTCSASSSVTYMYWYQQKPGSSPRLLIYDTSNLASGVPVRFSGSGSGTSYSLTISRMEAEDAATYYCQQWSSHIFTFGSGTELEIKRHHHHHH | – | no binding (tested: 0.5 µg of labeled protein in 200 µL)
scFv-425-SNAP-Ce6 (scFv, chlorin e6 through a benzyl-PEG24 linker (BG-PEG24-Ce6) covalently coupled to the active site of the SNAP-tag, not shown: SNAP-tag (hAGTm)) scFv: MAQVQLQQSGAELVKPGASVKLSCKASGYTFTSHWMHWVKQRAGQGLEWIGEFNPSNGRTNYNEKFKSKATLTVDKSSSTAYMQLSSLTSEDSAVYYCASRDYDYDGRYFDYWGQGTTVTVSSGGGGSGGGGSGGGGSDIELTQSPAIMSASPGEKVTMTCSASSSVTYMYWYQQKPGSSPRLLIYDTSNLASGVPVRFSGSGSGTSYSLTISRMEAEDAATYYCQQWSSHIFTFGSGTELEIKRHHHHHH | – | no binding (tested: 0.5 µg of labeled protein in 200 µL)
